In PMC3415792 (ACS chemical biology, 2011):

Experiments:
[1] = target: soluble human CD40 extracellular domain (human); test: SPR
[2] = target: the molecule itself; test: crystal structure

- Kd [1]: ~13 µM
B1: myc tagged form of soluble human CD40L (ligand)
chain: NMGDQNPQIAAHVISEASSKTTSVLQWAEKGYYTMSNNLVTLENGKQLTVKRQGLYYIYAQVTFCSNREASSQAPFIASLCLKSPGRFERILLRAANTHSSAKPCGQQSIHLGGVFELQPGASVFVNVTDPSQVSHGTGFTSFGLLKL
modifications: glycan (3 glycan chains in the model of the trimer)
- stoichiometry N [2]: 3
